# Laboratory results reported in the RNAGym collection of RNA variant scans (doi:10.1073/pnas.2313332121).
# Fewer inactive variants are shown than the library holds.
# B1: TPR 5TU (parent)
# chain: GGAUCUUCUCGAUCUAACAAAAAAGACAAAUCUGCCACAAAGCUUGAGAGCAUCUUCGGAUGCAGAGGCGGCAGCCUUCGGUGGCGCGAUAGCGCCAACGUUCUCAACUAUGACACGCAAAACGCGUGCUCCGUUGAAUGGAGUUUAUCAUG
# Variants of: B1
# Assay: polymerase ribozyme fitness, log enrichment relative to wild type (log ratio); higher = more active; in vitro selection for triplet polymerase activity
# Method in brief: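 PCR was used to build mutant libraries for each subunit of a heterodimeric triplet polymerase ribozyme, which were then transcribed. A single in vitro selection round, in triplicate, used a frozen incubation at −7 °C and recovered extended constructs by gel excision, streptavidin beads and RT-PCR. Fitness is the logarithm of genotype enrichment relative to wild-type enrichment, averaged over replicates with inverse-variance weights. The logarithm is base 2, and after Illumina sequencing only genotypes with ≥10 input reads and ≥1 read per output were kept.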
row,Variant,polymerase ribozyme fitness (log ratio)
1,A19U G46A G58C A97U U134A,≤ -4.2
2,G11A C54G G94A,-2.96
3,A19U U53A C85A,-3.78
4,A49C G141U,-3.13
5,A24U G88C C95G C123G,≤ -4.2
6,A21U A47C A52C A60G C85G C87A A121C,≤ -4.2
7,U31C C93U C131U,1.12
8,G68A C93A C108A G143U,≤ -4.2
9,A3U U82G,-0.249
10,U53A U102G G126A,-3.76
11,A73G G92A C132U G141C,≤ -4.2
12,C57U C85U U146G,-1.44
13,A30G G42A C96G G100A U139C U148C,≤ -4.2
14,U53A G126U,0.134
15,C85U U144A,-0.618
16,A21U A23U C54U G58A G92U,≤ -4.2
17,C85U A89U A106G C125G,-1.15
18,U61G G88A,-4.18
19,C27U C85A A91U G143A,≤ -4.2
20,U55A C95A G143A U144C,-3.04
21,G74A A91C A115U G141A A147C U148G,≤ -4.2

row,Variant,polymerase ribozyme fitness (log ratio)
1,C5A A26C A30U A52C G70A G86C,≤ -4.2
2,A121G U135A,-0.777
3,A20G G83A C129G,-3.83
4,C93U G143U,-3.38
5,C38U G83C C132A,≤ -4.2
6,A17U,-0.256
7,U33A C43U A60U C93A C96U U151C G152A,≤ -4.2
8,G11C C35U,-2.11
9,U56G G59A,-1.14
10,A21U A26C C69A G84U,-3.67
11,A47C A107U C108A,≤ -4.2
12,U31A C75G C95U C118U,-3.7
13,C69U G83U,-0.933
14,C10U C38U A73G A89G A97G C116G A122U C129A,≤ -4.2
15,A22G A23U U53G C57A G84U C114U C129U,≤ -4.2
16,C43U G83U A120G,≤ -4.2
17,G11U G84A,-0.536
18,G48U G92U U144C,-0.761
19,A22C C51A C93G A98C C116U U135C,≤ -4.2
20,A47G G68A C72U G81A A89G U148A,≤ -4.2
21,A26C G94A C131U,-1.51

row,Variant,polymerase ribozyme fitness (log ratio)
1,U4A G143U,-3.47
2,G92C U148G,-3.89
3,A60C G92U,-0.296
4,A37U A39G A49U G81C A91C G94A U146A,≤ -4.2
5,G70C A97G,-3.97
6,U6G A16G A29U C54U G86A U102G,≤ -4.2
7,A17U G46U G84A C105U,-0.266
8,C96U U146C,-0.67
9,C63U A73G,-0.225
10,A22G A28U A29G A37C G48A A64C C85G C99U C125A A137G,≤ -4.2
11,A49G U55G G88A U139C U145A,≤ -4.2
12,C27G C54A,-3.98
13,A30G C38A C57A G58C U78G A97G U101C U102G,≤ -4.2
14,U7A C10G U55A C72U G94A U151A,≤ -4.2
15,C35G G58C C75G C76U A89U C95G C108A A137C,≤ -4.2
16,C38U C105U C118G U139G,-1.24
17,G81C C85U A89U A142G,-1.67
18,C14U U53A U56A,-2.46
19,C51G C85G C125U A137C,≤ -4.2
20,A20U U55A,-2.07
21,A12U A17G A23G C35U G83A C87G G136U,≤ -4.2

row,Variant,polymerase ribozyme fitness (log ratio)
1,U4C C5U A23C A47C C79A C85G U90C G117U G152U,≤ -4.2
2,C35A G42A A91U,-3.84
3,C14G U139G U144G,-1.38
4,A21U,0.554
5,U6C A66C C72A U77C U82A U111C G126A,≤ -4.2
6,C38A C69A G133C A150C,≤ -4.2
7,G34C G88U U144A,≤ -4.2
8,A52U,-1.49
9,U55A C85U C103U,-0.7
10,A49C A64U C75U C76U U135G,≤ -4.2
11,C54A U144A,-1.74
12,U102C C131U U134G,-4.13
13,C85A G143U,-2.37
14,C36U G58A A119G G140A,-4.18
15,U13C A49C C93A,≤ -4.2
16,G42A G48U G58U C75G G83A U104G,≤ -4.2
17,G81C G84A A115C G133U C149U,≤ -4.2
18,C93U C149A,-4.05
19,A23G C38U U61A C69A C76U C96G C116U G117U,≤ -4.2
20,G84U U104G A115C,-3.36
